Measurements reported in publication PMC10899662, “TopBP1 utilises a bipartite GINS binding mode to support genome replication” (Nature Communications, 2024).

Test system: GINS lacking the Psf1-B domain (Psf1-ΔB)
Assay: Pulldown of TopBP1 versions by GINS with Psf1-ΔB compared to GINS-WT
Assay type: binding
Details: GINS-WT vs Psf1-ΔB
Excerpt: We next explored the relationship between the interactions of TopBP1 and DNA Polε with GINS. These proteins are part of the recently characterised metazoan pre-LC[37]–[40]. […] These pre-LC models are less informative on how DNA Polε affects the TopBP1-GINS interaction. The N-terminal region of PolE2 (PolE2-N; aa 1–75) binds GINS mainly at the Psf1-B domain, with minor interactions with residues in the A-domain that partly overlap with the TopBP1-BRCT4 interaction surface (Fig. 7a–c). To test if the Psf1-B domain is required for TopBP1 interaction, we did pulldowns with GINS lacking the Psf1-B domain (Psf1-ΔB). […] This could be due to a residual affinity of BRCT4 for Psf1-ΔB or due to the GINI-Psf1 interaction. We therefore analysed specifically the interaction of GINS with BRCT4 using the TopBP1-Gcc mutant. […] The moderate effect of the B domain deletion on BRCT4 binding is consistent with the partial overlap of the BRCT4 and PolE2 binding sites in Psf1. […] Together, in pre-LC, TopBP1 likely binds GINS through the GINI region, potentially also involving a residual affinity of BRCT4 for GINS despite the presence of DNA Polε. TopBP1 and GINS are likely further stabilised in pre-LCs via their interactions with DONSON[37],[38],[41]. […]

effect of Psf1-B domain deletion on TopBP1 binding, 100 mM NaAc | Molecule
the B domain had no influence | TopBP1-BRCT0-5-WT: recombinant TopBP1 amino acids 1–766, strep-tagged (protein, left off: Strep, C-terminal, kept, recombinant TopBP1 amino acids 1–766, strep-tagged) MSRNDKEPFFVKFLKSSDNSKCFFKALESIKEFQSEEYLQIITEEEALKIKENDRSLYICDPFSGVVFDHLKKLGCRIVGPQVVIFCMHHQRCVPRAEHPVYNMVMSDVTISCTSLEKEKREEVHKYVQMMGGRVYRDLNVSVTHLIAGEVGSKKYLVAANLKKPILLPSWIKTLWEKSQEKKITRYTDINMEDFKCPIFLGCIICVTGLCGLDRKEVQQLTVKHGGQYMGQLKMNECTHLIVQEPKGQKYECAKRWNVHCVTTQWFFDSIEKGFCQDESIYKTEPRPEAKTMPNSSTPTSQINTIDSRTLSDVSNISNINASCVSESICNSLNSKLEPTLENLENLDVSAFQAPEDLLDGCRIYLCGFSGRKLDKLRRLINSGGGVRFNQLNEDVTHVIVGDYDDELKQFWNKSAHRPHVVGAKWLLECFSKGYMLSEEPYIHANYQPVEIPVSHKPESKAALLKKKNSSFSKKDFAPSEKHEQADEDLLSQYENGSSTVVEAKTSEARPFNDSTHAEPLNDSTHISLQEENQSSVSHCVPDVSTITEEGLFSQKSFLVLGFSNENESNIANIIKENAGKIMSLLSRTVADYAVVPLLGCEVEATVGEVVTNTWLVTCIDYQTLFDPKSNPLFTPVPVMTGMTPLEDCVISFSQCAGAEKESLTFLANLLGASVQEYFVRKSNAKKGMFASTHLILKERGGSKYEAAKKWNLPAVTIAWLLETARTGKRADESHFLIENSTKEERSLETEITNGINLNSDTAEHP
the B domain had no influence | TopBP1-B4mut: Val590, Thr606 and Val610 mutated to glutamate, arginine and glutamate (protein, left off: Strep, C-terminal, kept) MSRNDKEPFFVKFLKSSDNSKCFFKALESIKEFQSEEYLQIITEEEALKIKENDRSLYICDPFSGVVFDHLKKLGCRIVGPQVVIFCMHHQRCVPRAEHPVYNMVMSDVTISCTSLEKEKREEVHKYVQMMGGRVYRDLNVSVTHLIAGEVGSKKYLVAANLKKPILLPSWIKTLWEKSQEKKITRYTDINMEDFKCPIFLGCIICVTGLCGLDRKEVQQLTVKHGGQYMGQLKMNECTHLIVQEPKGQKYECAKRWNVHCVTTQWFFDSIEKGFCQDESIYKTEPRPEAKTMPNSSTPTSQINTIDSRTLSDVSNISNINASCVSESICNSLNSKLEPTLENLENLDVSAFQAPEDLLDGCRIYLCGFSGRKLDKLRRLINSGGGVRFNQLNEDVTHVIVGDYDDELKQFWNKSAHRPHVVGAKWLLECFSKGYMLSEEPYIHANYQPVEIPVSHKPESKAALLKKKNSSFSKKDFAPSEKHEQADEDLLSQYENGSSTVVEAKTSEARPFNDSTHAEPLNDSTHISLQEENQSSVSHCVPDVSTITEEGLFSQKSFLVLGFSNENESNIANIIKENAGKIMSLLSRTEADYAVVPLLGCEVEARVGEEVTNTWLVTCIDYQTLFDPKSNPLFTPVPVMTGMTPLEDCVISFSQCAGAEKESLTFLANLLGASVQEYFVRKSNAKKGMFASTHLILKERGGSKYEAAKKWNLPAVTIAWLLETARTGKRADESHFLIENSTKEERSLETEITNGINLNSDTAEHP
